Data published in paper PMC11481871, “Discovery of GuaB inhibitors with efficacy against Acinetobacter baumannii infection” (mBio, 2024).

Legend:
[1] = molecular target: the molecule itself; assay: crystal structure; S. aureus GuaBΔCBS (27 mg/mL) with 5 mM IMP, vapor diffusion at room temperature, 0.1 M bicine pH 9.0, 0.1 M NaCl, 30% PEG550 MME; crystals soaked with inhibitor; space group I4, one molecule in the asu
[2] = molecular target: the molecule itself; assay: crystal structure; E. coli GuaBΔCBS (28 mg/mL) with 5 mM IMP, vapor diffusion at room temperature, 0.1 M bicine pH 9.0, 20% PEG 6000; crystals soaked with inhibitor; space group I4, one molecule in the asu
[3] = molecular target: the molecule itself; assay: crystal structure; A. baumannii GuaBΔCBS (21 mg/mL) with 5 mM IMP, vapor diffusion at room temperature, 0.1 M HEPES pH 7.5, 20% isopropanol, 10% PEG4000; crystals soaked with inhibitor; space group P21, eight copies in the asu

B1: S. aureus GuaBΔCBS (W2-F488_ΔE92-R219) (enzyme)
chain: WESKFAKESLTFDDVLLIPAQSDILPKDVDLSVQLSDKVKLNIPVISAGMDTVTESKMAIAMARQGGLGVIHKNMGVEEQADEVQKVKRSLLVAAAIGISKDTDIRAQKLVEAGVDVLVIDTAHGHSKGVIDQVKHIKKTYPEITLVAGNVATAEATKDLFEAGADIVKVGIGPGSICTTRVVAGVGVPQITAIYDCATEARKHGKAIIADGGIKFSGDIIKALAAGGHAVMLGSLLAGTEESPGATEIFQGRQYKVYRGMGSLGAMEKGSNDRYFQEDKAPKKFVPEGIEGRTAYKGALQDTIYQLMGGVRAGMGYTGSHDLRELREEAQFTRMGPAGLAESHPHNIQITKESPNYSF
notes: Crystallised with IMP and soaked with G1, G2 or G8; one molecule in the asymmetric unit, the tetramer arises from the fourfold axis of space group I4; also called S.a; GuaB; source: E. coli BL21 (DE3) Gold, purified (HisTrap FF, Superdex200 size-exclusion; same protocol as A. baumannii GuaBΔCBS)
stoichiometry N [1]: 4

B2: E. coli GuaBΔCBS (L2-S488_ΔE90-R217) (enzyme, Escherichia coli, UniProt P0ADG7 2-488, looked up)
chain: LRIAKEALTFDDVLLVPAHSTVLPNTADLSTQLTKTIRLNIPMLSAAMDTVTEARLAIALAQEGGIGFIHKNMSIERQAEEVRRVKKHLRVGAAVGAGAGNEERVDALVAAGVDVLLIDSSHGHSEGVLQRIRETRAKYPDLQIIGGNVATAAGARALAEAGCSAVKVGIGPGSICTTRIVTGVGVPQITAVADAVEALEGTGIPVIADGGIRFSGDIAKAIAAGASAVMVGSMLAGTEESPGEIELYQGRSYKSYRGMGSLGAMSKGSSDRYFQSDNAADKLVPEGIEGRVAYKGRLKEIIHQQMGGLRSCMGLTGCGTIDELRTKAEFVRISGAGIQESHVHDVTITKESPNYRLGS
notes: GuaB (inosine-5'-monophosphate dehydrogenase) of Escherichia coli, residues L2-S488 with the CBS domains (E90-R217) deleted; Crystallised with IMP and soaked with G1, G2 or G8; one molecule in the asymmetric unit, the tetramer arises from the fourfold axis of space group I4; also called E.c; GuaB; source: E. coli BL21 (DE3) Gold, purified (HisTrap FF, Superdex200 size-exclusion; same protocol as …)
stoichiometry N [2]: 4

B3: A. baumannii GuaB with CBS domain deletion (M1-G488_ΔM93-R201) (enzyme)
chain: MLTIVQEALTFDDVLLLPAYSTVLPKDVSLKTRLTRGIYLNIPLVSAAMDTVTESRMAIAMAQNGGIGILHKNMDIAAQAAEVRRVKKFEAGKAESYPNSCKDDLGRLRVGAAVGTGADTPSRVEALVEAGVDVIVVDTAHGHSAGVIERVRWVKQNFPQVQVIGGNIATGDAALALLDAGADAVKVGIGPGSICTTRIVAGIGMPQISAIDSVASALKDQIPLIADGGIRFSGDMAKAIGAGASTIMVGSLLAGTEEAPGEVEFFQGRYYKAYRGMGSLGAMAGATGSADRYFQDSKAGAEKLVPEGIEGRVPYKGPMGNIVHQMMGGLRSSMGYTGSAVIEDLRQNAKFVKITSAGMSESHVHDVTITKEAPNYRVG
notes: cloned into a modified pET52b vector; Eight copies in the asymmetric unit (octamer of two tetramers); also called A. baumannii GuaBΔCBS; GuaBΔCBS; source: E. coli BL21 (DE3) Gold, purified (HisTrap FF, Superdex200 size-exclusion)
stoichiometry N [3]: 8
